Results published in the supplement of paper PMC10126150.
± gives the standard deviation of the averaged measurements.

Test system: ATP
Assay: switch fluorescence ratio, 500 uM ATP over buffer (Cy3 cluster intensity, sum of 5 cycles each) (fold (ratio)); higher = stronger signal-on switching upon ATP binding; sequences stand for … in TCGTCGGCAGCGTCAGATGTGTATAAGAGACAGTTTTTTTTTTTTTTTTTTTTTTTTT…TC
Conditions: aptamer strand: ATP DNA aptamer (quencher-CACCTGGGGGAGTATTGCGGAGGAAGG + anchor), 100 nM annealed; ATP concentration: 500 uM
Summary of the method: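 Values give the fluorescence ratio for each switch-domain sequence, averaged from per-cluster ratios of summed target-cycle to summed buffer-cycle Cy3 intensity. The Cy3-labelled switching-strand clusters sat on a modified Illumina MiSeq flow-cell, were annealed to 100 nM quencher-labelled ATP aptamer, and were imaged in selection buffer, then after 15 min with 500 uM ATP at 22 °C. Five cycles ran with NaOH stripping and re-annealing between them, and clusters outside 100-1000 RFU were excluded.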
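Further: ATP exposure 15 min at 22 °C before imaging.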

Sequence | switch fluorescence ratio
CCACCCACAT | 1.48 ± 0.065
GGTGCAAGCT | 1.019 ± 0.0023
AAGGGTTTAG | 1 ± 0.067
GGCACGATGG | 1 ± 0.035
AGATATGTTG | 0.996 ± 0.012
TTTTGAGGG | 1.07 ± 0.061
TTTGATAGTC | 0.966 ± 0.07
TAACGCATCT | 1.149 ± 0.0052
TGTCCTAGAG | 1.02 ± 0.024
TCTTTGTTTT | 0.991 ± 0.021
GTCGACAGGT | 0.987 ± 0.031
CAGGCTTTGC | 0.992 ± 0.076
GCCGTGGCGG | 0.9753 ± 0.0041
CAAAGGTGCA | 1.09 ± 0.032
CAAGGTCAGA | 1.018 ± 0.01
TTAGGGTATT | 1.02 ± 0.028
CCTTTCAGGA | 0.9993 ± 0.0015
ACTTGGCACA | 1.08 ± 0.054
AGGCCGTCGT | 1.043 ± 0.0064
AATTAAAAAT | 0.987 ± 0.017
AAAAAATCGT | 1.02 ± 0.057
CGACTGGGGG | 0.957 ± 0.026
TACCGCGGGG | 1.04 ± 0.043
AAGTTGCGGA | 0.975 ± 0.019
TGTGAATCAG | 1.018 ± 0.0075

Sequence | switch fluorescence ratio
GTGGGTTCCT | 1.013 ± 0.0021
AAGATGCTTG | 0.998 ± 0.038
GGGACAATGA | 1 ± 0.038
CGTAGCTTTT | 1.82 ± 0.67
CGCAGGGGGC | 1.14 ± 0.059
TCCAGGGTTA | 1.031 ± 0.0058
GTTTATAGAG | 1.01 ± 0.039
TCCTAGGTTT | 1 ± 0.015
GGCGAAGTTC | 0.99 ± 0.021
TCCTTGGGTT | 1.016 ± 0.0099
TGCTAGGGTC | 0.994 ± 0.025
GCGGTGCCTG | 0.977 ± 0.042
TTATTTCATG | 0.984 ± 0.022
GCCGAATCTG | 1 ± 0.02
ATGATTTAGG | 0.9998 ± 0.0095
GGGGGGCCTA | 0.988 ± 0.046
GAGTTGGTTT | 1 ± 0.022
ATTTATGGAT | 1 ± 0.023
AGGGTAAATA | 1.0193 ± 0.00016
TTCAATGGAA | 1.03 ± 0.011
ACAGGAGGGG | 1.04 ± 0.018
ATTTTTTCCT | 1.03 ± 0.022
TTTGGTGGTC | 0.971 ± 0.022
CGGTCCGGTT | 0.9862 ± 0.0018
TCGAGCACTG | 1.13 ± 0.065

Sequence | switch fluorescence ratio
TAATATTGTT | 1.007 ± 0.0095
TTAAAGTCAT | 1.007 ± 0.0072
GAAAAAGGAC | 1.27 ± 0.32
AAAGCGGATG | 0.986 ± 0.077
TGTGTTGGTT | 0.9939 ± 0.0073
GTTATTCCAA | 1.03 ± 0.028
GCTAGAGTGC | 0.979 ± 0.021
CCATGGAGTA | 1 ± 0.019
TTTTTTTAA | 0.991 ± 0.026
GGGATAGATA | 1.03 ± 0.022
CAACGGGGGA | 1 ± 0.032
TTTTTTAATC | 1.02 ± 0.03
CTTGGGTAAG | 0.988 ± 0.033
GTGGGTTCAG | 1 ± 0.018
TAAAGGTAGG | 1.01 ± 0.041
ACCAAAGGCG | 1.04 ± 0.043
GTGTGGATCA | 0.9867 ± 0.0093
TTCCGGTTCT | 1.03 ± 0.013
AAGCTCCATT | 0.967 ± 0.016
AATAGGCACA | 1.07 ± 0.0015
TCTCGGCTGG | 0.9962 ± 0.001
TTTGCCTCCG | 2.15 ± 1.7
TACTTGCTTC | 1.02 ± 0.038
GTGTTGTACG | 0.999 ± 0.015
GCGTCTAATC | 0.994 ± 0.011

Sequence | switch fluorescence ratio
TCAGGGACGG | 0.982 ± 0.025
GGTACCACTT | 0.992 ± 0.039
TGCGCCTGGG | 1.03 ± 0.013
ATGTGCTGCG | 0.993 ± 0.031
TTATATACAG | 1.058 ± 0.0062
ATAGAATTGT | 0.9803 ± 0.0091
CGGGGATATG | 0.9607 ± 0.0029
TTTAACTTAT | 1.03 ± 0.02
TGTGGGTCGG | 0.968 ± 0.026
TTCGGTTGTG | 0.96 ± 0.013
ATTTAAAGGT | 0.964 ± 0.018
TACTAGAGCG | 1.03 ± 0.04
GCGACGGGGA | 1.08 ± 0.021
GACGATGCCA | 1.16 ± 0.035
CGATCCGTCC | 1.09 ± 0.032
CCTGGGTGTG | 1.05 ± 0.11
ATTAGTAAGG | 1.01 ± 0.011
TTGAATGAAT | 1.015 ± 0.0031
GATATTCGGG | 0.988 ± 0.017
GTGTTTATCG | 0.966 ± 0.016
TTTCACGCAA | 3.98 ± 1.1
CTAGGGGGCG | 0.992 ± 0.058
AAGACGCTAA | 1.18 ± 0.026
AATAACTACC | 1.15 ± 0.032
TTTTAAGCAG | 1.05 ± 0.036

Sequence | switch fluorescence ratio
AATGGGGGGG | 0.998 ± 0.034
TTTGGTTCGC | 0.971 ± 0.037
ACTGTTCTCG | 1.01 ± 0.046
GACGGAACGG | 1.04 ± 0.022
ACATACATTG | 1.27 ± 0.061
TTGGTACTTT | 0.9841 ± 0.0051
TCAACGGTAT | 1.06 ± 0.029
CCATGGGGGA | 1.01 ± 0.0019
AAGGTTTTTG | 1 ± 0.03
TAAGAGCCGT | 1.02 ± 0.012
AAGTGGGAAT | 1.02 ± 0.013
GTGGGGGTCG | 0.98 ± 0.075
TAAGTTTCCT | 1.07 ± 0.03
TGATTGGGTT | 0.975 ± 0.022
TGCTGGCGGC | 0.982 ± 0.03
GTTAGATTGG | 0.982 ± 0.013
GACTGGGTTG | 0.9668 ± 0.0011
AGGGGTCCGT | 0.969 ± 0.018
TACTACTTGC | 1.05 ± 0.0085
CGGGCCCTGA | 0.977 ± 0.013
GCCCTTGTAC | 1.2 ± 0.094
GAAAATTATG | 1.009 ± 0.0086
CTGGTTATTT | 1.04 ± 0.076
ATTTATTTTT | 1.011 ± 0.002
GCAATTTTTT | 1.03 ± 0.032

Sequence | switch fluorescence ratio
GAGGGAAACA | 1.01 ± 0.017
GCGGGCGGGA | 1.031 ± 0.0098
AATGATTGGA | 1.02 ± 0.041
AAGTAGGGTA | 1.03 ± 0.025
GTTTGGGATG | 0.9738 ± 0.0065
CGGGTCTGTT | 0.979 ± 0.047
AAATTTAGTT | 1.017 ± 0.006
ACATCGGGAT | 1.017 ± 0.0012
AGTAGATTAA | 0.986 ± 0.011
AAATTGAGGG | 1.02 ± 0.061
CCACAGAAAA | 1.033 ± 0.006
AGGCATATGG | 0.993 ± 0.057
CAGTGTGGTT | 1.11 ± 0.24
TGGCAAAGGA | 0.989 ± 0.026
AAGGCGGATA | 0.96 ± 0.013
CTGTATTAGT | 1.02 ± 0.027
GTAAAGCCTG | 0.968 ± 0.032
GAGGGAGAAA | 1.03 ± 0.038
TGGGTTGTTT | 0.986 ± 0.031
ATACGATGTA | 0.986 ± 0.014
ACTAGCAGCT | 1.01 ± 0.025
TAAGGGTTAT | 0.978 ± 0.023
TGTTTTCTTT | 0.987 ± 0.019
CGAGGGTTGG | 1.02 ± 0.018
AATGCTTGGG | 1.0044 ± 8.7e-05

Sequence | switch fluorescence ratio
AACATATATT | 1.02 ± 0.028
CGTCACTAGC | 1.04 ± 0.022
GTTGCCTTCA | 1.14 ± 0.035
ACAGATGGGG | 1.01 ± 0.015
TCGTTGGGGA | 1 ± 0.018
CTGCTTCGAA | 1.06 ± 0.023
CAGGCAGTTT | 1.01 ± 0.016
CCCCGGTTA | 1.46 ± 0.12
TAAGGGGATT | 1.03 ± 0.047
TCACTCATAT | 1.02 ± 0.013
GGGGTTTGCT | 0.973 ± 0.033
CGATTATGGT | 1.003 ± 0.0094
CGCATTCGTG | 1.08 ± 0.029
GAATGTAGGT | 0.993 ± 0.037
GGGCTAACCT | 1.32 ± 0.043
GGAGAGGGTC | 1.049 ± 0.0064
GGAGATTTGG | 0.979 ± 0.011
ACTCACATAG | 1.217 ± 0.0056
TTTTCCAGCG | 1.03 ± 0.013
CGGCAGGATG | 1.01 ± 0.024
TAAAACCAGG | 1.21 ± 0.082
ATGGGTTGTT | 1.01 ± 0.034
GATTCGGGGT | 1 ± 0.017
TTATATCTAC | 1.004 ± 0.0045
CACTAGAGGA | 1.022 ± 0.0057

Sequence | switch fluorescence ratio
TGAGCAGAGG | 1.04 ± 0.015
GGAGCATGGG | 1.19 ± 0.04
TTGGTTATGC | 0.998 ± 0.045
CTCTGTAGGC | 1.87 ± 0.31
ATGTTTGGTG | 0.97 ± 0.019
ATTCGCAGCC | 1.55 ± 0.029
ATTTATAGGG | 0.982 ± 0.014
AGGTAGAATA | 0.989 ± 0.031
GTTAGCTTGA | 0.9966 ± 0.00037
CGACAAGCTT | 1.03 ± 0.016
GTTGGTGTTT | 0.985 ± 0.016
TTACAATTTC | 1.03 ± 0.056
GGGTATTATG | 1.02 ± 0.028
TCTTTACAAA | 1.03 ± 0.02
AAGGGCTTTT | 1.01 ± 0.036
CGTATGCAGT | 1.01 ± 0.011
ATTTGGCGCG | 0.964 ± 0.024
ATATAGGGGC | 1.02 ± 0.046
CGAGGATAAC | 1.03 ± 0.043
GATGGGAATG | 1.01 ± 0.013
ACTAGGGTTT | 1.018 ± 0.0027
GGGGGGGCAC | 1.01 ± 0.029
CCAGTTTGGT | 0.9871 ± 0.0073
TGTATCATGT | 0.99 ± 0.037
TGTAGCGGGG | 0.9942 ± 0.0048
